# Target: tr10b_human TNFRSF10B (UniProt O14763)
substance,measurement,value
Ras-related C3 botulinum toxin substrate 1 (Homo sapiens) (from UniProt P63000) T17N,effect of a mutation on the interaction,decreasing interaction strength
